The text below walks through data of article PMC6820244.

Data set [1] deals with T1, WRNIP1 (short isoform) (Homo sapiens, UniProt Q96S55-2 1-640).
T1 sequence: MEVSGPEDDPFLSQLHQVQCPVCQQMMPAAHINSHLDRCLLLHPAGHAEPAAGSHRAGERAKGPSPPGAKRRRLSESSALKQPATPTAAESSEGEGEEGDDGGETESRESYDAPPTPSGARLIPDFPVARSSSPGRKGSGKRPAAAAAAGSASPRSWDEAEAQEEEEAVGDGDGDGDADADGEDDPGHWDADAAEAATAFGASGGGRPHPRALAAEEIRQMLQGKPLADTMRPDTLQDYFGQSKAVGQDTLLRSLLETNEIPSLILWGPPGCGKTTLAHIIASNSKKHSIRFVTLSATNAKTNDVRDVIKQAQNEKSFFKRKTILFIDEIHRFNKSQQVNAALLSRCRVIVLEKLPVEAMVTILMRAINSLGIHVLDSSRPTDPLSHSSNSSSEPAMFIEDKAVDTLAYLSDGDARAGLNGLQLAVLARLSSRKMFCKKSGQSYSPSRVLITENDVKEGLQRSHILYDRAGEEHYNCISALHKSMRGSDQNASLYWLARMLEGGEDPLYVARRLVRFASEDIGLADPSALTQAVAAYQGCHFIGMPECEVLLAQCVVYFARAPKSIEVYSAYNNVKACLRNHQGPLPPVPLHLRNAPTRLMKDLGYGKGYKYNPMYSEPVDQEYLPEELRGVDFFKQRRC
The data set can be described thus: EMSA.

Data set [2] addresses T1, WRNIP1 (short isoform). Kind of data set: EMSA. The source holds these as a separate data set.

Where two headings read alike, the source gives them in different places.

B1: ssDNA X01 (ssDNA)
DNA: GACGCTGCCGAATTCTACCAGTGCCTTGCTAGGACATCTTTGCCCACCTGCAGGTTCACCC
As for B1, the binding result with WRNIP1 (short isoform) [1] is recorded as “no binding”.

B2: nicked four-way junction (structured_DNA)
DNA 1: GACGCTGCCGAATTCTACCAGTGCCTTGCTAGGACATCTTTGCCCACCTGCAGGTTCACCC
DNA 2: TGGGTGAACCTGCAGGTGGGCAAAGATGTCCATCTGTTGTAATCGTCAAGCTTTATGCCGTT
DNA 3: CATGGAGCTGTCTAGAGGATCCGACTATCGA
DNA 4: GAACGGCATAAAGCTTGACGATTACAACAGAT
DNA 5: ATCGATAGTCGGATCCTCTAGACAGCTCCATGTAGCAAGGCACTGGTAGAATTCGGCAGCGT
As to B2, the binding result with WRNIP1 (short isoform) [2] is on record as “binds”.
